The text below walks through data of patent US8053415B2, “Compounds having RD targeting motifs” (Washington University in St. Louis, priority 2005, dated 2011).

“Also recorded” adds a separate entry of the source. Where a SMILES comes first, the peptide text is derived from it. Bounds are passed on as bounds.

The subject of data set [1] is A549 cells. As to the kind of experiment: Cellular internalization and blocking studies by fluorescence microscopy (Example 1). The settings on record: 37° C.; for translocation into the nucleus: A549 cells.
Protocol: Cells were grown on LabTek microscope slides, as described above. The medium was removed and cells were incubated at 4° C. or 37° C. in PBS containing 1 μM of one of the peptide conjugates for 30 min. […] The cells were further incubated at 37° C. for 4 h and visualized with a Zeiss LSM510 system using a 633 laser and an LP650 filter.
For antibody blocking studies, cells were preincubated for 30 min at room temperature with 10 μg/ml function-specific monoclonal antibodies anti-αv or anti-β3 integrin subunits (Molecular Probes; Eugene Oreg.) before addition of 1 μM of a cypate-peptide conjugate. For nuclear staining, 0.1 μM TOPO-1 (Molecular Probes) was mixed with mounting medium and applied to the cells. All cells were visualized on an Olympus FV1000 microscope equipped with the appropriate bandwidth filters for cypate conjugates (or cypate-3 conjugates) and TROPO-1.
In data set [2] the test system is A549 cells. As to the kind of experiment: MTT cytotoxicity assay. In kind it is cell-based, human. The conditions noted are these: up to 100 μM solution in 20% aqueous DMSO, 24 h. As for the experimental part: Cytotoxicity assays were performed using the 3-(4,5-dimethylthiazol-2-yl)-2,5-diphenyltetrazolium bromide (MTT) based in vitro toxicology assay kit (Sigma-Aldrich, St. Louis, Mo.) per the manufacturer's protocol. Briefly, A549 cells were grown in 96 well plates to 75% confluence in phenol red free Dulbecco's Modified Eagle's Medium supplemented with 10% fetal calf serum, 100 units/mL penicillin and 100 units/mL streptomycin. A concentration range (0-125 μM) of the compound to be tested was added to each well in a final volume of 100 μL/well and the cells were incubated for 24 h at 37° C. in 5% CO2. After incubation, the medium was removed and replaced with 100 μL/well phenol red free medium. Absorbances at 570 nm and 690 nm were measured. MTT (10 μL) was added to each well and the cells were incubated for 2 h. […] Absorbance at 570 nm and 690 nm were measured. The Δ570 and Δ690 were determined by taking the difference of the absorbances before and after the addition of MTT. The percent of viable cells, B, was determined according to the formula:
[formula] where λΔ570 was the absorbance of formazan crystals at 570 nm and λΔ690 was background at 690 nm.
The conventional MTT protocol typically involves background subtraction at 690 nm from the absorbance at 570 nm. […] To circumvent this problem, the background absorbance at 690 nm was adjusted by running parallel experiments with and without MTT. […]
On the technique in general: Formazan colour is commonly taken as a measure of viable cells.

The subject of the next data set is A549 tumor. Briefly: In vivo fluorescence optical imaging and ex vivo organ distribution in A549 tumor-bearing nude mice. The conditions noted are these: for uptake / retention in A549 tumor: 0.3 μmol per kg via lateral tail vein, fluorescence imaging. As for the experimental part: All in vivo studies were performed in compliance with the Washington University in St Louis Animal Study Committee's requirements for the care and use of laboratory animals in research. Nude mice (18-22 g) were anesthetized with xylazine/ketamine cocktail via intraperitoneal injection and placed in a supine position. The mice were injected subcutaneously with A549 cells (1×10^6) in the lower back of the mice. Tumor masses were palpable at 5-7 days post implant, which reached 5 mm in 10-15 days. Prior to injection of the probe, the mice were anesthetized as described above. A 29-gauge needle was used to inject the probes into the mouse via the lateral tail vein. The molecular probe (100 μL) was injected via the lateral tail vein at 0.3 μmol per kg of body weight. […] [SEQ ID NO:1] were constituted in a vial, and doses of 0.3 μmol per kg of body weight were injected into the A549 tumor-bearing mice.
A non-invasive in vivo continuous wave fluorescence imaging apparatus was used to visualize the distribution and preferential tissue uptake of the cypate-peptide molecular beacons in the nude mice (Achilefu (2004) Technol. Cancer Res. Treat. 3:393-409, incorporated herein by reference). Light from two laser diodes of nominal wavelength 780 nm and nominal power of 50 mW was launched into a fiber optic bundle. Two laser diodes were used to produce as much uniform illumination of the whole animal or organ parts as possible. The nominal 50 mW of incident power was reduced to about 44 mW at the output of the fiber optic bundle. A de-focusing lens in position after the bundle expanded the beam such that nearly the whole animal was illuminated. A Photometrics CCD camera (16 bit, 1024×1024 pixel, back illuminated, thermoelectric Peltier cooled with forced air) was used to capture the emitted photons. An interference filter (830 nm) was mounted in front of the CCD camera input lens such that only emitted fluorescent light from the contrast agent was imaged. Real-time acquisition, display and data processing software (WinView/32) was used to obtain the optical image. The samples were dissolved in 20% aqueous DMSO and animals were injected with doses of 0.3 μmol/kg body weight via the lateral tail vein. Injected volumes were 100 μL for each mouse. Data analysis consisted of subtracting (pixel by pixel) the pre-injection image from the post injection images, and displaying the false color results. Integration of the relative fluorescence intensities of tumor vs. surrounding tissues indicated the extent of selective uptake of the contrast agent. At the completion of the study, the mice were euthanized and some organ parts were excised and rinsed with water. The tissues were placed under the CCD camera and the fluorescence emission from each organ was measured after excitation with the 780 nm laser sources. Tissue parts, instead of whole organs, were used to minimize problems associated with depth-dependent non-linear fluorescence emission. A statistical program in the WinView package was used to estimate the mean fluorescence intensity per organ part.
In vivo optical imaging studies using the cypate-peptide optical probes were performed and analyzed as described above in Example 1. […]

Regarding `CC1(C)C(/C=C/C=C/C=C/C=C2/N(CCC(=O)NCC(=O)N[C@@H](CCCNC(=N)N)C(=O)N[C@@H](CC(=O)O)C(=O)N[C@@H](CO)C(=O)N3CCC[C@H]3C(=O)N[C@@H](CCCCN)C(=O)O)c3ccc4ccccc4c3C2(C)C)=[N+](CCC(=O)O)c2ccc3ccccc3c21` [Cyp-GRD, Cypate-GRDSPK] (HELM PEPTIDE1{[CC1(C)C(/C=C/C=C/C=C/C=C2/N(CCC(=O)[*:2])c3ccc4ccccc4c3C2(C)C)=[N+](CCC(=O)O)c2ccc3ccccc3c21].G.R.D.S.P.K}$$$$V2.0), the “internalization in A549 cells” value with A549 cells [1] (1 μM) was “internalized”. For the same compound, the “translocation into the nucleus” value in the data set with A549 cells [1] is “did not translocate to the nucleus”. In the data set with A549 cells [1] (listed as cypate-GRD), the “translocation into the nucleus” value is given as “not localized in the nucleus”. Further, the “cell proliferation or cytotoxicity (percent of viable cells, MTT)” value in the data set with A549 cells [2] is “did not induce cell proliferation or cytotoxicity; also recorded: not cytotoxic”. In addition, in the data set on A549 tumor (0.3 μmol per kg i.v.), the clearance from blood result is given as “slow clearance”, the “time post injection after which selective tumor uptake became obvious” value is over 8 h and the “time the whole animal fluoresced after injection before clearance began” value is “up to 2 h”. The “uptake / retention in A549 tumor” value with A549 tumor is on record as “preferential uptake of the probes in the tumor”. The “uptake / retention in A549 tumor” value in the data set on A549 tumor (listed as cypate-GRD) is given as “preferentially localized”. Further, in the data set with A549 tumor (24 h post injection), the “accumulation / retention in nontarget tissues” value was “much lower” and the “tumor uptake compared among the cypate-peptide conjugates” value is given as “higher uptake in the tumor tissue”.
